Assay: soluble on expression in E. coli; label from the status in PepcDB or PDB records

| Sequence | soluble on expression in E. coli |
| --- | --- |
| MAHHHHHHSLSGPRVERLEVSAYTVPTDYPESDGTLQWDSTTMILVEAHGGGRKGLGYTYGDVSVGRFVESKLAGVAEGSDALSPPAVWARMQAAIRNAGRPGVGAMAVSAVDIALWDLKARLLGLPLADALPRFHAEVPVYGSGGFTSYPLRRLQEQLGGWAAAGIPRVKMKVGREPEKDPERVRAAREAIGESVELMVDANGAYTRKQALYWAGAFAREAGISYLEEPVSSEDREGLRLLRDRGPGGVAIAAGEYEWTLPQLHDLAGCVDILQADVTRCGGITGLLRVDGICRGHQIPFSAHCAPAVSAHACCAVESLLHLEYFHDHARVERLLFDGTLDPEGGSLRPDPDRPGLGLELKRSEAGKYAA | soluble |
| MAHLLQLHHVSKSYREKKAIDDLTITIPNGKIIGLLGPNGSGKTTLIKLINGLLQPNKGEIVIDGYRPCVETKKIISYLPDTTYLNENMRIKDMLEFFSDFYSDFDKSKATSLLRDLELDPEDRFKTLSKGNKEKVQLILVMSRKARLYVLDEPIGGVDPAARDYILKTIINSYCENASVIISTHLISDIEPILDEVIFLKQGRLFLSGNADDLRQEYQQSIDSLFRETYKV | not soluble |
| MAIETEDIKYEESFIKNTRGFKLFTCRWLPTNREPRALVFLCHGYGMECSITMNSTARRLVKAGFAVYGMDYEGHGKSDGLSAYISNFDRLVDDVSTHYTAICEREENKWKMRFMLGESMGGAVVLLLGRKNPDFWDGAILVAPMCKIAEEMKPSPFVISILTKLISIIPKWKIIPSQDIIEISYKEPEIRKQVRENPLCSKGRPRLKTAYELLRISNDLEKRLQEVSLPFLVLHGDDDKVTDKAVSQELYKVALSADKTLKLYPGMWHGLLTGETPENIEIVFADVISWLEKRSDYGNDRFESELKQRNDRLNFKK | soluble |
| MAIFHLDFKIVKRSEGKSSVAKAAYHARCKITDERTGDTYDYSRRDDLYGHFILAPANAPEHIVKDSTSLWNEVERVERQNNGQTARYFDVSIPTELNNDEKKKLVLEYCQKNFVDKGMIADIAFHDLDSDNPHAHVMLTLKTIGPEGFGKKERSWNDRKMSVLWRESWASMANSYLATAGSSERIDHRSLQAQHEEALEKAAVALDNEEKALWLAKAAETNRPPMKRIHSAKWRSKAAQEQRAAEQTVRDAAKLEAVEVYKTFSELDLEIVVDVRSFTISVLPKPEEIVIPDFSTREKHQSIVSPVTSRRPAVKSYRAPNKATKVGMRGEGTPVLVAPEPNKSTKLKTSSSKKTRAMNRAPMHSRKQVKPHQNGLFKRLTTYMVCLFKEKFIWSKKKPIPVDAEHDKRIADNYVFDEIQGIYVSRAEYERRARFNNGTYSPAPDEVRRFPHRTKEEQHKVDDEPDYDPSSTPVPIISRKHLSLKPLEHHHHHH | not soluble |
| MAINNSAQKFIARNRAPRVQIEYDVEIYGSEKKIELPFVMAVLADLAGKPREELPPVTDRKFLDIDIDNFNERMKAIAPRVAFAVPNTLTGEGQLMVDITLENMDDFSPAQIARKVDALNQLLEARTQLANLQTYMDGKAGAENLVNKLLQDPTLLKTLANAPKSAATQQDVSADNESAE | not soluble |
| MAINPFFTLVQRPVQSIEMAPPKPSAKGAKKAAKTVTKPKDGKKRRHARKESYSVYIYRVLKQVHPDTGVSSKAMSIMNSFVNDVFERIAAEASRLAHYNKRSTISSREIQTAVRLILPGELAKHAVSEGTKAVTKYTSSK | not soluble |
| MAIQVKASLRKNPQDKKAAGKYYAQVVLAPEMTQRQIIDQIADRCTVTGSDVKAVLDALMTVIKRNLANGSPIRLGDLGSFRPSVSGIGSENVDKFTASNVKKARVIYVPSAEIKEAVAMYAFSKVGATAEGGNTEKPGGGDIDNPGGGDEEAPDPTVLEHHHHHH | soluble |
| MAIRLPAEWEEQDGVLIAWPHPGSDWYPWLRLVEPVFAQIVREITRFETALVVAADGERTAALLEAVGARMERVAIVELPTNDTWARDFGPVTVERDGRPVLLDFGFNGWGLKFAADRDNLVTRRLRHLGIFGDIPAEMVGLVLEGGSIESDGRGTVLTTAECLLNPNRNPHLSRAEIEEALARYLGTERVLWLENGFLAGDDTDSHVDTLARLAPDDTIVYVRCDDATDEHYAALFMMEKELANLRTREGSPYRLIPLPWPRACFDHEGQRLPATYANFLVINGAVLVPVYDDPADEAALEAIGRAFPGREIVGIDCRPLIIQHGSLHCVTMQLPKGVLPCPNLEHHHHHH | soluble |
| MAIRLYKLAVALGVFIVSAPAFSHGHHSHGKPLTEVEQKAANGVFDDANVQNRTLSDWDGVWQSVYPLLQSGKLDPVFQKKADADKTKTFAEIKDYYHKGYATDIEMIGIEDGIVEFHRNNETTSCKYDYDGYKILTYKSGKKGVRYLFECKDPESKAPKYIQFSDHIIAPRKSSHFHIFMGNDSQQSLLNEMENWPTYYPYQLSSEEVVEEMMSH | soluble |
| MAITRESKNGEEFVGEVTFYEGVNMNVVVNFFTGLDHYEYAKLRFAHTAHTPPLIRASSTSASASASTSTSSSRPKKHYLEKNMEHLLKKLDILAFKQTIIESRSPTSDSIHHQDFVSNTDTAEYDDDDTKFF | not soluble |
| MAIVGQPNLRELFDDAPTPHIAHPPHTHRRDFYVATDGSYASDGAGLGVIIETRDGSRVLRRSVPDTAPDNNVAEYRALHLGLDTLAARTPPDASVGVLVDHDALAGDVNSAVLATQRRDYQPVRAFSAPRDARHHWRGIRARVTGFAEIRAAQVDSSRNPAHALANEPSQYAHVNDEPDRCLLPDATTSTEPQIPPPSRSDRPAGDLEHHHHHH | not soluble |
| MAKDIYKTFKRSVSGIVGGNNINGEGSSSPSTSAPQVKYRGGTGRTWIHPPDYLINGHVEYVARFLGCVETPKANGSDVAREAIHAIRFQRDLKRSEQTRETAKLQKVEIRISIDNVIIADIKTKAPMYTFPLGRISFCADDKDDKRMFSFIARAEGASGKPSCYAFTSEKLAEDITLTIGEAFDLAYKRFLDKNRTSLENQKQIYILKKKIVELETENQVLIERLAEALRANSKADYENTGPPIYPGLGPPALPLSPMPQGPPPNIPPSSIYSMPRANDLPPTEMAPTLPQISTSSNGASPSVSPASTSPSGPAPSIPPPRPPALAPPPPVAPRRNPVVSPKNSTAGLLDGLELGSAEPAKKAPSNIFDDSFDPRAGEKKSTAAEYNPFGADFLSGIQNGKEAPPSASAELLASEAIARLPKPESSSVPPKKTAAEYDAMINEVEKKLAAMSSGSFEFGQLQTGDLGGIEGESDYGTPSDRLNPKMMNLKQ | not soluble |
| MAKGIPVLEIFGPTIQGEGMVIGQKTMFVRTAGCDYSCSWCDSAFTWDGSAKKDIRWMTAEEIFAELKDIGGDAFSHVTISGGNPALLKQLDAFIELLKENNIRAALETQGTVYQDWFTLIDDLTISPKPPSSKMVTNFQKLDHILTSLQENDRQHAVSLKVVIFNDEDLEFAKTVHKRYPGIPFYLQVGNDDVHTTDDQSLIAHLLGKYEALVDKVAVDAELNLVRVLPQLHTLLWGNKRGV | not soluble |
| MAKKEEYVRKPDWLKIKLNTNETYTGLKKMMREKNLHTVCEEAKCPNIHECWAVRKTATFMILGDVCTRACRFCAVKTGLPNELDLQEPERVAESVEIMGLKHAVITAVARDDLKDGGAGVFAETVRAVRRRNPFCTIEVLPSDMMGNDDNLKTLMDARPNILNHNIETVRRLTPRVRARATYERSLEFLRRAKEMQPDIPTKSSLMIGLGETKDEIIETMDDLRANNVDIMTIGQYLQPTKKHLKVQKYYHPDEFAELKEIALSKGFSHCEAGPLVRSSYHADEQVNEAQVREEARKAAAKS | not soluble |
| MAKLITLGEILIEFNALSPGPLRHVSYFEKHVAGSEANYCVAFIKQGNECGIIAKVGDDEFGYNAIEWLRGQGVDVSHMKIDPSAPTGIFFIQRHYPVPLKSESIYYRKGSAGSKLSPEDVDEEYVKSADLVHSSGITLAISSTAKEAVYKAFEIASNRSFDTNIRLKLWSAEEAKREILKLLSKFHLKFLITDTDDSKIILGESDPDKAAKAFSDYAEIIVMKLGPKGAIVYYDGKKYYSSGYQVPVEDVTGAGDALGGTFLSLYYKGFEMEKALDYAIVASTLNVMIRGDQENLPTTKDIETFLREMKK | soluble |
| MAKNKKLFEYLSQHAETISSTWYETIEETDPNSIYASTDPVVIHNLKSQNLAFNYKINRIFIDDEDVYLPILKEWAFEVTQDQEHLKTPIHYIIREFVRVRDLYVSYVKEFVHLNQNTVKSEEAEDLYHALIKAFDLVIHIFIEEMYKNTSLQLQAQKDMITELSAPVIVLFHSVGLLPLIGDIDTVRAKLIMENTLHQCAKKKVTQLYIDLSGVAVIDTMVAHQLFSLIEALRLIGVSSTLSGIRPEIAQTAVQLGLSFEGISLRSTLASAIASDLKLKKV | not soluble |
| MAKTITKDSFFHSRLQQFVANSLFPAGAGDWYKNKGYGKKGEVDDEAPFRDFVEKQKTDKKSHYYKEFQGLDLSLKKVKTKLVSGESCQLEVMKCQPESNEPKKPGTGKHIVYFPGANTYYQACFRDISTACKETGATVHAFNFPGTGLSSGKVREANDLINAGISVVSSLIKQGVHPDDIILQGDCYGASIALEVKKQLEDQADIKVRAIMNNVFKSFKAAVCDMITQSPWLPNILKSIVKRLLEFTGWHVTPGKKYKHADPYQCHIQHLGDQTLESSTLSGKVSKYHHEIQTGQTKSQKRAPITDTCPEEYRKDRDELDRKHYVRVKESAKERLASKFGVDKFGRVNAHFADLCELEMLDGQSVYQGFVNDYIARSNAYIEKHPQKGIKEVQDDLRKLHYLQPADSIEITEDEAQDFNTVVDLITEEQQLRHDRFNDNTIGKSISM | not soluble |
| MAKVSLEKDKIKFLLVEGVHQKALESLRAAGYTNIEFHKGALDDEQLKESIRDAHFIGLRSRTHLTEDVINAAEKLVAIGAFAIGTNQVDLDAAAKRGIPVFNAPFSNTRSVAELVIGELLLLLRGVPEANAKAHRGVWNKLAAGSFEARGKKLGIIGYGHIGTQLGILAESLGMYVYFYDIENKLPLGNATQVQHLSDLLNMSDVVSLHVPENPSTKNMMGAKEISLMKPGSLLINASRGTVVDIPALADALASKHLAGAAIDVFPTEPATNSDPFTSPLAEFDNVLLTPHIGGSTQEAQENIGLEVAGKLIKYSDNGSTLSAVNFPEVSLPLHVGRRLMHIHENRPGVLTALNKIFAEQGVNIAAQYLQTSAQMGYVVIDIEADEDVAEKALQAMKAIPGTIRARLLY | soluble |
| MAKVVVLGAGVSGHTCASFLKKKLGKQHEVVVISPNSYYQWIPSNIWVGVGHMTIDDVRFKLKKVYDRWGIDYKQAKAVSIHPEGDANISKGYVTIEYTDEEHAGYTETVDYDYLVNATGPKLNFEATEGLGPDKNSLSVCTYSHAAHAWEELQKSIEKMKNGQKQRFLIGTGHAMATCQGAAFEYILNVAHEISRRGLSHMAELTWISNEYELGDFGMGGAFIKRGGYITPTKVFTESLLAEYGIKWIRRAGVYKVEPGVAHYETLDGEMLSQEFDFAMLIPSFSGVGLTAFDKSGNDITDKMFLPNKFMKVDADYTAKPFGEWGANDWPTIYQTPMYSNIYAAGIAFAPPHSISKPMTSVNGRQIFPTPPRTGMPSGVIGKIIALNISEQIKGNHKEHHHKASMARMGAACIVSAGFGSFDGLGASMTVFPIVPDWEKYPEWGRDMTYSVGEVGLAGHWLKFMLHYLFFHKAKGYPFWYLIPELEHHHHHH | not soluble |
